Measured values reported in the supplement of paper PMC10126150.
± gives the standard deviation of the averaged measurements.

Tested on: ATP
Assay: switch fluorescence ratio, 500 uM ATP over buffer (Cy3 cluster intensity, sum of 5 cycles each) (fold (ratio)); higher = stronger signal-on switching upon ATP binding; sequences stand for … in TCGTCGGCAGCGTCAGATGTGTATAAGAGACAGTTTTTTTTTTTTTTTTTTTTTTTTT…TC
Settings: aptamer strand: ATP DNA aptamer (quencher-CACCTGGGGGAGTATTGCGGAGGAAGG + anchor), 100 nM annealed; ATP concentration: 500 uM
Method in brief: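 Cy3-labelled switching-strand clusters on a modified Illumina MiSeq flow-cell were annealed to 100 nM quencher-labelled ATP aptamer, imaged in selection buffer, then imaged after 15 min with 500 uM ATP at 22 °C. Five buffer/ATP cycles ran, with NaOH stripping and re-annealing between them. The fluorescence ratio is summed target-cycle over summed buffer-cycle Cy3 intensity per cluster, averaged per switch-domain sequence. Clusters outside 100-1000 RFU were excluded.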
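Further: ATP exposure 15 min at 22 °C before imaging.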

Row | Sequence | switch fluorescence ratio
1 | TCTTTTAAAG | 0.988 ± 0.035
2 | TCTTTTCGAA | 1.01 ± 0.033
3 | TCTTTTCTTT | 1.04 ± 0.043
4 | TCTTTTGGCG | 0.927 ± 0.059
5 | TCTTTTGGGA | 1.16 ± 0.29
6 | TCTTTTGGTG | 1.03 ± 0.019
7 | TCTTTTTGGG | 1.13 ± 0.16
8 | TCTTTTTTGC | 0.986 ± 0.073
9 | TCTTTTTTGG | 1 ± 0.042
10 | TGAAAAAGAT | 0.989 ± 0.028
11 | TGAAAAGAGG | 0.988 ± 0.021
12 | TGAAAAGGGC | 0.9875 ± 0.0095
13 | TGAAAATTCG | 1.08 ± 0.11
14 | TGAAAGAACT | 1.16 ± 0.21
15 | TGAAAGTTGG | 0.997 ± 0.013
16 | TGAAATAATT | 0.9791 ± 0.0017
17 | TGAAATGAAT | 0.994 ± 0.02
18 | TGAAATGGTT | 1.01 ± 0.017
19 | TGAAATGTTT | 0.999 ± 0.031
20 | TGAAATTGTT | 1 ± 0.045
21 | TGAACAAATG | 1.04 ± 0.11
22 | TGAACGGCTT | 1.04 ± 0.011
23 | TGAAGAAGGT | 1.03 ± 0.015
24 | TGAAGACTGT | 0.988 ± 0.045
25 | TGAAGCAAAT | 1.77 ± 0.075

Row | Sequence | switch fluorescence ratio
26 | TGAAGGATAC | 1.28 ± 0.23
27 | TGAAGGGTTC | 1.12 ± 0.24
28 | TGAAGGGTTT | 0.996 ± 0.052
29 | TGAAGTAGGG | 1.05 ± 0.12
30 | TGAAGTTCGC | 0.969 ± 0.021
31 | TGAAGTTTTC | 0.968 ± 0.022
32 | TGAAGTTTTG | 1.02 ± 0.027
33 | TGAATAGGAG | 1.011 ± 0.0027
34 | TGAATAGGGA | 0.982 ± 0.05
35 | TGAATATAGT | 1.004 ± 0.0042
36 | TGAATATATG | 1.02 ± 0.032
37 | TGAATCGGGA | 0.99 ± 0.011
38 | TGAATCTGTT | 1.02 ± 0.05
39 | TGAATGAAGG | 1.01 ± 0.058
40 | TGAATGATAG | 0.983 ± 0.026
41 | TGAATGGGGC | 0.953 ± 0.042
42 | TGAATTTTAC | 1.03 ± 0.04
43 | TGACACGGTT | 0.9814 ± 0.0058
44 | TGACATAGGT | 1.02 ± 0.019
45 | TGACATGTAG | 1.01 ± 0.052
46 | TGACATTATA | 1.01 ± 0.032
47 | TGACATTTGT | 0.965 ± 0.048
48 | TGACCCTATA | 1.06 ± 0.028
49 | TGACCCTTAG | 0.987 ± 0.025
50 | TGACCCTTCT | 1.14 ± 0.05

Row | Sequence | switch fluorescence ratio
51 | TGACCGAAGT | 1.043 ± 0.0028
52 | TGACCGGGGG | 1.0571 ± 5.2e-05
53 | TGACCTCGTG | 0.995 ± 0.039
54 | TGACGAGGTG | 0.9816 ± 0.0051
55 | TGACGCAAAG | 1.63 ± 0.065
56 | TGACGCATAG | 1.7 ± 0.12
57 | TGACGCCGGG | 0.98 ± 0.018
58 | TGACGCGTTT | 1.02 ± 0.041
59 | TGACGGCTGG | 1.026 ± 0.0044
60 | TGACGGGAGG | 0.991 ± 0.04
61 | TGACGGGCAC | 1.17 ± 0.036
62 | TGACGGGGGA | 0.986 ± 0.021
63 | TGACGGGGTT | 0.992 ± 0.026
64 | TGACGGTGTG | 0.973 ± 0.02
65 | TGACGTTAAG | 1.03 ± 0.086
66 | TGACGTTATG | 1 ± 0.053
67 | TGACTACATG | 1.04 ± 0.013
68 | TGACTACCAT | 1.07 ± 0.08
69 | TGACTCCAGG | 1.23 ± 0.023
70 | TGACTTAGTG | 1.03 ± 0.016
71 | TGACTTATGG | 0.983 ± 0.08
72 | TGACTTGGCG | 1.026 ± 0.0087
73 | TGACTTGTGC | 0.976 ± 0.037
74 | TGAGAAATTA | 1.05 ± 0.014
75 | TGAGAAGTTG | 1.01 ± 0.066

Row | Sequence | switch fluorescence ratio
76 | TGAGAATGGG | 0.995 ± 0.044
77 | TGAGAATTTA | 0.9935 ± 0.0019
78 | TGAGACTAGT | 0.989 ± 0.023
79 | TGAGAGGAGT | 0.9911 ± 0.0013
80 | TGAGAGTTAA | 0.961 ± 0.036
81 | TGAGAGTTTG | 0.987 ± 0.017
82 | TGAGATACAT | 1.13 ± 0.1
83 | TGAGATGGGG | 0.99 ± 0.021
84 | TGAGATTCCT | 1.09 ± 0.034
85 | TGAGCATGGG | 1 ± 0.029
86 | TGAGCCGGGT | 1.02 ± 0.033
87 | TGAGCCTCGG | 0.965 ± 0.032
88 | TGAGCGGGAA | 1.01 ± 0.02
89 | TGAGCGGGTA | 1.024 ± 0.0052
90 | TGAGCTGCGT | 1.01 ± 0.022
91 | TGAGGAACCT | 1.77 ± 0.098
92 | TGAGGATGGA | 0.975 ± 0.044
93 | TGAGGATGTT | 0.9852 ± 0.0089
94 | TGAGGCAGGG | 1.037 ± 0.0042
95 | TGAGGCGCGG | 0.97 ± 0.025
96 | TGAGGCTGTT | 1 ± 0.031
97 | TGAGGGAGGC | 1.06 ± 0.06
98 | TGAGGGATGC | 0.968 ± 0.029
99 | TGAGGGCGTG | 1.01 ± 0.014
100 | TGAGGGGCGA | 0.989 ± 0.028
